According to paper PMC7125077, “In TFIIH the Arch domain of XPD is mechanistically essential for transcription and DNA repair” (Nature Communications, 2020):

Biological target: human XPD, wild type (XPD-FLAG) (human, UniProt P18074 1-760)
Assay: cell-based or functional assay

B1: human CDK activating kinase complex (CAK), wild type: MAT1 / CDK7-Strep / Cyclin H (complex)
chain 1: MDDQGCPRCKTTKYRNPSLKLMVNVCGHTLCESCVDLLFVRGAGNCPECGTPLRKSNFRVQLFEDPTVDKEVEIRKKVLKIYNKREEDFPSLREYNDFLEEVEEIVFNLTNNVDLDNTKKKMEIYQKENKDVIQKNKLKLTREQEELEEALEVERQENEQRRLFIQKEEQLQQILKRKNKQAFLDELESSDLPVALLLAQHKDRSTQLEMQLEKPKPVKPVTFSTGIKMGQHISLAPIHKLEEALYEYQPLQIETYGPHVPELEMLGRLGYLNHVRAASPQDLAGGYTSSLACHRALQDAFSGLFWQPS
chain 2: MALDVKSRAKRYEKLDFLGEGQFATVYKARDKNTNQIVAIKKIKLGHRSEAKDGINRTALREIKLLQELSHPNIIGLLDAFGHKSNISLVFDFMETDLEVIIKDNSLVLTPSHIKAYMLMTLQGLEYLHQHWILHRDLKPNNLLLDENGVLKLADFGLAKSFGSPNRAYTHQVVTRWYRAPELLFGARMYGVGVDMWAVGCILAELLLRVPFLPGDSDLDQLTRIFETLGTPTEEQWPDMCSLPDYVTFKSFPGIPLHHIFSAAGDDLLDLIQGLFLFNPCARITATQALKMKYFSNRPGPTPGCQLPRPNCPVETLKEQSNPALAIKRKRTEALEQGGLPKKLIF
chain 3: MYHNSSQKRHWTFSSEEQLARLRADANRKFRCKAVANGKVLPNDPVFLEPHEEMTLCKYYEKRLLEFCSVFKPAMPRSVVGTACMYFKRFYLNNSVMEYHPRIIMLTCAFLACKVDEFNVSSPQFVGNLRESPLGQEKALEQILEYELLLIQQLNFHLIVHNPYRPFEGFLIDLKTRYPILENPEILRKTADDFLNRIALTDAYLLYTPSQIALTAILSSASRAGITMESYLSESLMLKENRTCLSQLLDIMKSMRNLVKKYEPPRSEEVAVLKQKLERCHSAELALNVITKKRKGYEDDDYVSKKSKHEEEEWTDDDLVESL
- in vitro transcription of TFIIH reconstituted from rIIH6, CAK and XPD, % of wild type: 100%
